These results are taken from paper PMC4144780, “MSRB7 reverses oxidation of GSTF2/3 to confer tolerance of Arabidopsis thaliana to oxidative stress” (Journal of Experimental Botany, 2014).

One experiment concerns the target T1, oxidized His–GSTF2 (A. thaliana, UniProt P46422 1-212, oxidized (positions not stated for this sample)).
T1 construct: Glutathione S-transferase F2 (GSTF2), A. thaliana, locus At4g02520; cloned into pET-53-DEST; How it was oxidized is told only for the activity assay (0.5 mM HOCl, 40 min, stopped with 5 mM Met); also called recombinant GSTF2; MetO–GSTF2
T1 sequence (looked up): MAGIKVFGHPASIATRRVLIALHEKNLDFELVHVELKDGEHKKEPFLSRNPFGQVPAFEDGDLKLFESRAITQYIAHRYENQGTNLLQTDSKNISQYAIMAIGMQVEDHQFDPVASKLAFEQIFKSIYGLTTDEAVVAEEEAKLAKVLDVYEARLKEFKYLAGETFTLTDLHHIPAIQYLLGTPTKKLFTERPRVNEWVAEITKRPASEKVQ
Put plainly: co-IP; recombinant His–flag–MSRB7 and oxidized His–GSTs incubated with rabbit anti-flag antibody in IP buffer (15 mM HEPES pH 7.4, 1 mM EDTA, 1 mM DTT, 10 mM MgCl2, 30 mM KCl) 1 h at room temperature; Protein G–Sepharose; blot with mouse anti-His antibody. The conditions noted are these: both partners purified.

Another experiment has as its target T2, oxidized His–GSTF3 (A. thaliana, UniProt Q9SLM6 1-212, oxidized (positions not stated for this sample)).
T2 construct: Glutathione S-transferase F3 (GSTF3), A. thaliana, locus At2g02930; cloned into pET-53-DEST; How it was oxidized is told only for the activity assay (0.5 mM HOCl, 40 min, stopped with 5 mM Met); also called recombinant GSTF3; MetO–GSTF3
T2 sequence (looked up): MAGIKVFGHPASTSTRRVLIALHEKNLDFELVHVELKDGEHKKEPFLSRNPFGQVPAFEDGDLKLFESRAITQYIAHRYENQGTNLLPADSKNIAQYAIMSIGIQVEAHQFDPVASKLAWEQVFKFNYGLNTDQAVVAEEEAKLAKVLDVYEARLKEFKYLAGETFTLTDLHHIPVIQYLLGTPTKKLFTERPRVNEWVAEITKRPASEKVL
The description is as above. The conditions noted are these: both partners purified.

B1: His–flag–MSRB7 (enzyme, A. thaliana, UniProt Q8VY86 1-144, looked up)
chain: MAAMTAAAVPATGSFQKQDEEWRAVLSPEQFRVLRLKGTDKRGKGEFTKKFEEGTYSCAGCGTALYKSTTKFDSGCGWPAFFDAIPGAIKQTPEAGGRRMEITCAVCDGHLGHVFKGEGYSTPTDQRHCVNSVSLKFSSAGSSQ
notes: Methionine sulfoxide reductase B7 (MSRB7), A. thaliana, locus At4g21830; N terminus fused with a flag tag, cloned into pET-53-DEST; also called recombinant MSRB7; not shown: flag, N-terminal, kept
Turning to B1, the binding result with oxidized His–GSTF2 and with oxidized His–GSTF3 was “binds” each time.
